In US20240344138A1, “TARGETED THERAPIES IN CANCER” (Feng Biosciences, Inc, priority 2021, published 2024):

Tests used:
Format in all cases: in vivo, human
[1] = test system: locally advanced or metastatic gastric cancer; experiment: First-line clinical trial of chemotherapy, immune checkpoint inhibitor and bavituximab, outcome by TME phenotype
Protocol: (§1) A clinical trial is run to determine whether locally advanced or metastatic gastric cancer tumor microenvironment phenotypes correlate to clinical responses when patients are treated with chemotherapy, an immune checkpoint inhibitor, and Bavituximab in the first-line setting. The analysis includes samples from 120 patients across 2 treatment arms (60 patients in each arm). Patients are randomized to receive either (i) chemotherapy and an immune checkpoint inhibitor, or (ii) chemotherapy, an immune checkpoint inhibitor, and bavituximab. RNA gene signatures are analyzed from tumor samples acquired before any treatments and TME phenotypes are determined. Patients are followed for clinical response, progression-free survival, and overall survival.
Gastric cancer patients are randomized to receiving a regimen of chemotherapy (i.e. capecitabine, 5-FU, cisplatin etc.) plus an immune checkpoint inhibitor (anti-PD-(L)1—i.e., an inhibitor to PD-1 or PD-L1) therapy, or a regimen of chemotherapy/immune checkpoint inhibitor/Bavituximab. The combination of chemotherapy/immune checkpoint inhibitor/Bavituximab increases overall response rate (ORR), 6 month progression-free survival (PFS) and overall survival (OS) patients with advanced gastric cancer compared to the regimen of chemotherapy/immune checkpoint inhibitor alone as shown in TABLE 23. […] One hundred and twenty (120) patients are enrolled, 60 in each of the treatment groups with equal representation across the 4 stromal phenotypes (15 in each phenotype per treatment group). The correlation between each TME phenotype is tested against clinical outcome data. In immune active (IA) and immune suppressed (IS) patients the use of the regimen of chemotherapy/immune checkpoint inhibitor/Bavituximab confers benefit in comparison to patients classified to angiogenic (A) and immune desert (ID) TME phenotype classes as shown in the TABLE 24.

[2] = test system: locally advanced or metastatic gastric cancer; experiment: First-line clinical trial of chemotherapy, immune checkpoint inhibitor and navicixizumab, outcome by TME phenotype
Protocol: as §1, with “inhibitor, and Navicixizumab in the” for “inhibitor, and Bavituximab in the”, “immune checkpoint inhibitor or (ii)” for “immune checkpoint inhibitor, or (ii)”, “immune checkpoint inhibitor and Navicixizumab.” for “immune checkpoint inhibitor, and bavituximab.”, “inhibitor and Navicixizumab. RNA gene” for “inhibitor, and bavituximab. RNA gene”
Gastric cancer patients are randomized to receiving a regimen of chemotherapy (e.g., capecitabine, 5-FU, cisplatin etc.) plus an immune checkpoint inhibitor (anti-PD-(L)1—e.g., an inhibitor to PD-1 or PD-L1) therapy, or a regimen of chemotherapy/immune checkpoint inhibitor/Navicixizumab. […] The correlation between each TME phenotype is tested against clinical outcome data. In immune active (IA), immune suppressed (IS) and angiogenic (A) patients the use of the regimen of chemotherapy/immune checkpoint inhibitor/Navicixizumab confers benefit in comparison to patients classified to the immune desert (ID) TME phenotype class as shown in the TABLE 26.

[3] = test system: castration-resistant metastatic prostate cancer; experiment: Third-line clinical trial of navicixizumab/chemotherapy or navicixizumab/PARP inhibitor, outcome by TME phenotype; settings: plus chemotherapy group
Protocol: A clinical trial is run to determine whether castration-resistant metastatic prostate cancer tumor microenvironment phenotypes correlate to clinical responses when patients are treated with a combination of Navicixizumab/chemotherapy or Navicixizumab/PARP inhibitor in the third-line setting. […] Patients receive either Navicixizumab/chemotherapy (BRCA WT) or Navicixizumab/PARP inhibitor (BRCA mutant). RNA gene signatures are analyzed from tumor samples acquired before any treatments and TME phenotypes are determined. Patients are followed for clinical response, progression-free survival and overall survival. […] BRCA WT prostate cancer patients receive a regimen of Navicixizumab plus chemotherapy (e.g., docetaxel, cabazitaxel etc.). BRCA mutant prostate cancer patients receive a regimen of Navicixizumab plus a PARP inhibitor (e.g., Rucaparib, Olaparib, etc.). […] The correlation between each TME phenotype is tested against clinical outcome data. In tumors that are biomarker positive, represented by angiogenic (A) and immune suppressed (IS) phenotypes, the use of Navicixizumab combinations confers benefit in comparison to patients classified as biomarker negative, represented by immune active (IA) and immune desert (ID) TME phenotype classes as shown in the TABLE 29 and TABLE 30.

[4] = test system: locally advanced/metastatic HER2-negative breast cancer; experiment: Second-line clinical trial of navicixizumab/chemotherapy or navicixizumab/PARP inhibitor, outcome by TME phenotype; settings: plus chemotherapy group
Protocol: A clinical trial is run to determine whether locally advanced/metastatic HER2-negative breast cancer tumor microenvironment phenotypes correlate to clinical responses when patients are treated with a combination of Navicixizumab/chemotherapy or Navicixizumab/PARP inhibitor in the second-line setting. […] Patients receive either Navicixizumab/chemotherapy (BRCA WT and hormone receptor-positive) or Navicixizumab/PARP inhibitor (BRCA mutant or triple-negative for ER/PR/HER2). RNA gene signatures are analyzed from tumor samples acquired before any treatments and TME phenotypes are determined. Patients are followed for clinical response and progression-free survival. […] BRCA WT/hormone receptor-positive/HER2-negative breast cancer patients receive a regimen of Navicixizumab plus chemotherapy (e.g., capecitabine, etc.). BRCA mutant or triple-negative for ER/PR/HER2 breast cancer patients receive a regimen of Navicixizumab plus a PARP inhibitor (e.g., Rucaparib, Olaparib, etc.). […] The correlation between each TME phenotype is tested against clinical outcome data. In biomarker positive tumors, represented by angiogenic (A) and immune suppressed (IS) phenotypes, the use of Navicixizumab combinations confers benefit in comparison to patients classified as biomarker negative, represented by immune active (IA) and immune desert (ID) TME phenotype classes as shown in the TABLE 27 and TABLE 28.

B1: Chemo/Immune Checkpoint Inhibitor/Bavituximab: regimen of chemotherapy, immune checkpoint inhibitor and bavituximab (antibody, chains of the INN, looked up, V domains shown)
VH: EVQLQQSGPELEKPGASVKLSCKASGYSFTGYNMNWVKQSHGKSLEWIGHIDPYYGDTSYNQKFRGKATLTVDKSSSTAYMQLKSLTSEDSAVYYCVKGGYYGHWYFDVWGAGTTVTVSS
VL: DIQMTQSPSSLSASLGERVSLTCRASQDIGSSLNWLQQGPDGTIKRLIYATSSLDSGVPKRFSGSRSGSDYSLTISSLESEDFVDYYCLQYVSSPPTFGAGTKLELK
modifications: with chemotherapy and checkpoint inhibitor
6 Month PFS (%) ([1]; A (n = 15)): 46.7%
ORR (%) ([1]; A (n = 15)): 46.7%
OS (months) ([1]; A (n = 15)): 8.2 months
6 Month PFS (%) ([1]; IA (n = 15)): 80.0%
ORR (%) ([1]; IA (n = 15)): 73.3%
OS (months) ([1]; IA (n = 15)): 20.2 months
6 Month PFS (%) ([1]; ID (n = 15)): 60.0%
ORR (%) ([1]; ID (n = 15)): 53.3%
OS (months) ([1]; ID (n = 15)): 11.8 months
6 Month PFS (%) ([1]; IS (n = 15)): 73.3%
ORR (%) ([1]; IS (n = 15)): 66.7%
OS (months) ([1]; IS (n = 15)): 19.8 months
6 Month PFS (%) ([1]; whole treatment group (n = 60)): 65%
ORR (%) ([1]; whole treatment group (n = 60)): 60%
OS (months) ([1]; whole treatment group (n = 60)): 15 months

B2: Chemo/Immune Checkpoint Inhibitor/Navicixizumab: regimen of chemotherapy, immune checkpoint inhibitor and navicixizumab (antibody, chains of the INN, looked up, V domains shown)
VH: QVQLVQSGAEVKKPGASVKISCKASGYSFTAYYIHWVKQAPGQGLEWIGYISNYNRATNYNQKFKGRVTFTTDTSTSTAYMELRSLRSDDTAVYYCARDYDYDVGMDYWGQGTLVTVSS
VL: DIVMTQSPDSLAVSLGERATISCRASESVDNYGISFMKWFQQKPGQPPKLLIYAASNQGSGVPDRFSGSGSGTDFTLTISSLQAEDVAVYYCQQSKEVPWTFGGGTKVEIK
VH2: QVQLVQSGAEVKKPGASVKVSCKASGYTFTNYWMHWVRQAPGQGLEWMGDINPSNGRTSYKEKFKRRVTLSVDKSSSTAYMELSSLRSEDTAVYFCTIHYDDKYYPLMDYWGQGTLVTVSS
VL2: B2 VL
modifications: with chemotherapy and checkpoint inhibitor
6 Month PFS (%) ([2]; A (n = 15)): 66.7%
ORR (%) ([2]; A (n = 15)): 60.0%
OS (months) ([2]; A (n = 15)): 15.4 months
6 Month PFS (%) ([2]; IA (n = 15)): 73.3%
ORR (%) ([2]; IA (n = 15)): 66.7%
OS (months) ([2]; IA (n = 15)): 17.4 months
6 Month PFS (%) ([2]; ID (n = 15)): 53.3%
ORR (%) ([2]; ID (n = 15)): 46.7%
OS (months) ([2]; ID (n = 15)): 11.5 months
6 Month PFS (%) ([2]; IS (n = 15)): 73.3%
ORR (%) ([2]; IS (n = 15)): 73.3%
OS (months) ([2]; IS (n = 15)): 19.7 months
6 Month PFS (%) ([2]; whole treatment group (n = 60)): 67%
ORR (%) ([2]; whole treatment group (n = 60)): 63%
OS (months) ([2]; whole treatment group (n = 60)): 16 months

B3: Navicixizumab plus chemotherapy: navicixizumab plus chemotherapy (e.g., capecitabine in breast; docetaxel, cabazitaxel in prostate) (antibody, chains of the INN, looked up, V domains shown)
VH: B2 VH
VL: B2 VL
VH2: B2 VH2
VL2: B2 VL
modifications: plus chemotherapy
ORR (%) ([3]; A (n = 10)): 54%
OS (months) ([3]; A (n = 10)): 19.0 months
PFS (months) ([3]; A (n = 10)): 13.5 months
ORR (%) ([3]; Biomarker Negative (n = 20)): 34%
OS (months) ([3]; Biomarker Negative (n = 20)): 11.9 months
PFS (months) ([3]; Biomarker Negative (n = 20)): 9.8 months
ORR (%) ([3]; Biomarker Positive (n = 20), BRCA WT): 56%
OS (months) ([3]; Biomarker Positive (n = 20)): 20.1 months
PFS (months) ([3]; Biomarker Positive (n = 20)): 14.2 months
ORR (%) ([3]; IA (n = 10)): 37%
OS (months) ([3]; IA (n = 10)): 12.0 months
PFS (months) ([3]; IA (n = 10)): 10.9 months
ORR (%) ([3]; ID (n = 10)): 31%
OS (months) ([3]; ID (n = 10)): 11.8 months
PFS (months) ([3]; ID (n = 10)): 8.7 months
ORR (%) ([3]; IS (n = 10)): 58%
OS (months) ([3]; IS (n = 10)): 21.2 months
PFS (months) ([3]; IS (n = 10)): 14.7 months
ORR (%) ([4]; A (n = 15)): 60%
PFS (months) ([4]; A (n = 15)): 11.5 months
ORR (%) ([4]; Biomarker Negative (n = 30)): 20%
PFS (months) ([4]; Biomarker Negative (n = 30)): 5.7 months
ORR (%) ([4]; Biomarker Positive (n = 30), BRCA WT, hormone receptor-positive): 63.4%
PFS (months) ([4]; Biomarker Positive (n = 30)): 12.3 months
ORR (%) ([4]; IA (n = 15)): 26.7%
PFS (months) ([4]; IA (n = 15)): 6.0 months
ORR (%) ([4]; ID (n = 15)): 13.3%
PFS (months) ([4]; ID (n = 15)): 5.4 months
ORR (%) ([4]; IS (n = 15)): 66.7%
PFS (months) ([4]; IS (n = 15)): 13.1 months
